This note sets out measurements from article doi:10.1101/2025.01.10.632437 (bioRxiv, 2025).

What is called stoichiometry N is the number of molecules, sites or subunits per partner or assembly.

Read-outs that look alike come from different tables or passages of the source.

Holding throughout (test): cryo-EM structure
Data set [1] concerns the molecule itself.
Data set [2] concerns the molecule itself. The source holds these as a separate data set.
Data set [3] deals with the molecule itself. This is another data set of the same source.

B1: bovine proton-activated Cl- channel TMEM206/PACC1 without vYFP (conventional purification) (natural protein)
chain: not shown
With B1, in the data set “cryo-EM structure [1]”, the binding result is on record as “binds”.

B2: murine TMEM16F with C-terminal vYFP and SBP-tag (natural protein, mouse)
chain: QMMTRKVLLNMELEEDDDEDGDIVLENFDQTIVCPTFGSLENQQDFRTPEFEEFNGKPDSLFFTDGQRRIDFILVYEDESKKENNKKGTNEKQKRKRQAYESNLICHGLQLEATRSVSDDKLVFVKVHAPWEVLCTYAEIMHIKLPLKPNDLKTRSPFGNLNWFTKVLRVNESVIKPEQEFFTAPFEKSRMNDFYILDRDSFFNPATRSRIVYFILSRVKYQVMNNVNKFGINRLVSSGIYKAAFPLHDCRFNYESEDISCPSERYLLYREWAHPRSIYKKQPLDLIRKYYGEKIGIYFAWLGYYTQMLLLAAVVGVACFLYGYLDQDNCTWSKEVCDPDIGGQILMCPQCDRLCPFWRLNITCESSKKLCIFDSFGTLIFAVFMGVWVTLFLEFWKRRQAELEYEWDTVELQQEEQARPEYEAQCNHVVINEITQEEERIPFTTCGKCIRVTLCASAVFFWILLIIASVIGIIVYRLSVFIVFSTTLPKNPNGTDPIQKYLTPQMATSITASIISFIIIMILNTIYEKVAIMITNFELPRTQTDYENSLTMKMFLFQFVNYYSSCFYIAFFKGKFVGYPGDPVYLLGKYRSEECDPGGCLLELTTQLTIIMGGKAIWNNIQEVLLPWVMNLIGRYKRVSGSEKITPRWEQDYHLQPMGKLGLFYEYLEMIIQFGFVTLFVASFPLAPLLALVNNILEIRVDAWKLTTQFRRMVPEKAQDIGAWQPIMQGIAILAVVTNAMIIAFTSDMIPRLVYYWSFSIPPYGDHTYYTMDGYINNTLSVFNITDFKNTDKENPYIGLGNYTLCRYRDFRNPPGHPQEYKHNIYYWHVIAAKLAFIIVMEHIIYSVKFFISYAIPDVSKITKSKIKREKYLTQKLLHESHLKDLTKNMGIIAERIGGTVDNSVRPKLE
On to B2, for which the “stoichiometry N” value in the data set “cryo-EM structure [2]” stood at 2.

B3: bovine TMEM206/PACC1 with C-terminally fused venus-YFP followed by a streptavidin binding peptide tag (natural protein)
chain: not shown
For B3, the binding result in the data set “cryo-EM structure [3]” is on record as “binds”.
